Target: full-length (FL) human MAP9 (GFP::Human MAP9::strepII) (human) (UniProt Q49MG5)
Sequence (Q49MG5 whole entry): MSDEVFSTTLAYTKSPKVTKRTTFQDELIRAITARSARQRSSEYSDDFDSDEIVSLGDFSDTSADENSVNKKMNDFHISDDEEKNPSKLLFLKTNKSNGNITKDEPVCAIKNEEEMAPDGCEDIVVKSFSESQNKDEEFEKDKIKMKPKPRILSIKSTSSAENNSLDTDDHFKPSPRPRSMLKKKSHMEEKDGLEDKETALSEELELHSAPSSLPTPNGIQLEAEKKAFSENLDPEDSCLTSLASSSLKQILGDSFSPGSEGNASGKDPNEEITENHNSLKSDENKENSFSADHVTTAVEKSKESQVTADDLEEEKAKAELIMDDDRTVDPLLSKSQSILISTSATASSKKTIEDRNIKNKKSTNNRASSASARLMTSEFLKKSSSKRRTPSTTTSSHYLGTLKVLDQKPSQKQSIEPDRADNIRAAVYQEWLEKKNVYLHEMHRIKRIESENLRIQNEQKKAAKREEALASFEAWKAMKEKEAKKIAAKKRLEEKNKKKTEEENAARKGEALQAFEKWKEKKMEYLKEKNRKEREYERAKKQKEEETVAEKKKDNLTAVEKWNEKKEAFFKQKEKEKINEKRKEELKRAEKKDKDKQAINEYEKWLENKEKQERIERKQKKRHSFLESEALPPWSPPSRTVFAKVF

“FL KIF1A (Human KIF1A::yBBR::strepII) (from UniProt Q12756 1-1690) (natural protein)” showed a run frequency of FL KIF1A on MTs decorated with MAP9 at low concentrations (<60 nM); slightly inhibited at higher concentrations of 2 fold.

From article doi:10.1101/2025.11.17.688911
